Results on one substance are retold here after paper doi:10.1101/2025.10.28.685229.

Test [1] addresses YF17D VLPs containing only E and M proteins (yellow fever virus, strain 17D). Description: BLI. A general note: Biolayer interferometry detects binding as a change in optical thickness at a sensor tip.
In test [2] the target is YF17D virus particles (live-attenuated YFV 17D) (yellow fever virus, strain 17D). Nature of the test: BLI.

As a reminder, the Kd is the equilibrium constant for the complex coming apart. Low readings indicate higher affinity, high ones lower affinity.

As to “Fc-tagged LRP8-LBD (LRP8 LA1237 with a C-terminal human IgG Fc) (Fc fusion)”, the Kd in test [1] came to 300 nM; in test [2] it was 460 nM.
